From US7741541 come the findings set out here.

The target in this assay is barnase (ribonuclease from Bacillus amyloliquefaciens) (Bacillus amyloliquefaciens) (UniProt P00648). Briefly: cell-based or functional assay.
Chain of UniProt P00648 (P00648 48-157 limits assumed): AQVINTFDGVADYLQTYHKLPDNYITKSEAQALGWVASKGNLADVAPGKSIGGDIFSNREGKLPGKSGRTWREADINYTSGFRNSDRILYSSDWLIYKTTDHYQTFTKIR

As for “barstar protein (product of the wild type and of the modified barstar gene of Bacillus amyloliquefaciens) (from UniProt P11540 2-90)”, the Percent of restored (male fertile) plants after transformation of barnase line bn 3.6 with construct A, A9-bs(fm)::TA29-bs(wt) worked out at 89.8%; the Percent of restored (male fertile) plants after transformation of barnase line bn 3.6 with construct B, TA29-bs(wt) is 65.6%; the Percent of restored (male fertile) plants after transformation of barnase line bn 3.6 with construct C, A9-bs(wt) came out at 12.7%; the Percent of restored (male fertile) plants after transformation of barnase line bn 3.6 with construct D, A9-bs(fm) stood at 10.8%.
